Data: the nanobody polyreactivity screen of Harvey et al. (2022)

assay: yeast display, Sf9 membrane polyspecificity reagent, FACS + sequencing; frameworks hold sequencing errors
In short: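 After 36–48 hours of galactose induction, yeast (Saccharomyces cerevisiae BJ5465) displaying a synthetic nanobody library were stained at 4 °C for 1 hour with 10% biotinylated, detergent-solubilized Sf9 membrane reagent. Streptavidin microbeads enriched the stained cells before FACS sorting into low and high (top ~1%) gates on anti-HA and streptavidin fluorescence. Each clone's polyreactivity label reflects its gate of origin.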

Sequence	polyreactivity (PSR sort gate)
QVQLVESGGGLVQAGGSLRLSCAASGLTFLVNAMGWYRQAPGKEREFVSVITTDGGGTYYADSVKGRFTISRDNAKNTVYLQMNSLKPEDTAVYYCAAESKYRTAATSYRLDYDYWGQGTQVTVSS	low polyreactivity
QVQLVESGGGLVQAGGSLRLSCAASGRIFAWYAMGWYRQAPGKEREFVAASTYRAARTYYADSVKGRFTISRDNAKNTVYLQMNSLNPEDTAVYYCNRQFGRRVYISHPGPGYWGQGTQVTVSS	high polyreactivity
QVQLVESGGGLVQAGGSLRLSCAAYGSTFCVYAMGWYRQAQGKERELVAAINFSGRTYYADSVKVRFSISRDNAKNTVYVQMNSLKPEDTAVYYCAARIIFEDVGTKYYYWGQGTHVTVSS	high polyreactivity
QVQLVESGGGLVQAGGSLRLSCAASGSIFAAYTMGWYRQAPGKERELVATISSGGSTYYADSVKGRFTISRDNAKNTVYLQMNSLKPEDTAVYYCAAVAYTYTEYEYWGQGTQVTVSS	low polyreactivity
QVQIVESGGGLVQAGGSLRISCPASGRTFNYNAMGWYRQAPGKERELVAAITSGASTNYADSVKGRFTISRDNAKNTVFLQINRLKPEDTAVYYCAKATYPHEYDYWGQGTQVNVSS	low polyreactivity
QVQLVESGGGLVQAGGSLRLSCAASGRTFRFYAMGWYRQAPGKERELVAAIRWSGGSTYYADSVKGRFTISRDNAKNTVYLQMNSLKPEDTAVYYCNADNRWPFGGWYGLDYWGQGTQVTVSS	high polyreactivity
QVQLVESGAGLVQEGGSLRLSCAASGFTFFGYAMGWYRQEPGKERELVATISDTGGSTYADSVKGRFTISRDTAKNTVYLQMNCVKPEDTAVYYCNARSVFYSMDYWGQGTQVTVSS	low polyreactivity
QVQLVESGGGLVQAGGSLRLSCAASGLTFLVYAMGWYRQAPGKERELVAAITSIGDSTFYADSVKGRFTISRDNAKNTVYLQMNSLKPEDTAVYYCNADGPAGDNKFTLLDYDYWGQGTQVTVSS	low polyreactivity
QVQLVESGGGLVQAGGSLRLSCAASGRTIVSNAMGWYRQAPGKERELVAAITRGSRTYYADSVKGRFTISRDNAKNTVYLQMNILKPEDTAVYYCAAYRDYGSYGSWGQGTQVTVSS	high polyreactivity
QVQLVESGGGLVQAGGSLRLSCAASGGIFGRNAMGWYRQAPGKERELVASISKSGGSTYYADSVKGRFTISRDNAKNTVYLQMKSLKPEDSAVYYCAARYSYFNWDNYYWGQGTLVTVSS	high polyreactivity
QVQLVESGGRLVQAGGSLRLSCAASGFIFAYYSMGWYRKAPGKERELVAAISQSGTSTYYADSLKGRFTISRAKAKNTVYLQMNSLKPVDTAVYYCNAELRDLEYDYWGQGTQVTVSS	low polyreactivity
QVQLVESGGGLVQAGGSLRLSCAASGRIIGRYAMGWYRQAPGKERELVAGITIRGGSTYYADSVKGRITISRDNAKNTVYLQMNSLKPEDTAVYYCAADDKGGLAVEYDYWGQGTQVTVSS	low polyreactivity
QVQLVESGGGLVQAGGSLRLSCAASGSIFEEYAMGWYRQAPGKERELVARIDESGGSTYYADSVKGRFTISRDTAKNTVYLQMNSLKPEDTAVYYCAAERYSDSWGYYSVDEGSWEMDYWGQGTQVTVSS	low polyreactivity
QVQLVESGGGVVQAGGSLRLSCAASGSIFYVYSMGWYRQAPGKERELVAAISRSGTNTYYADSVKGRFTISRDNAKNTVYLQMNSLKPEDTAVYYCNADAAYLVTQPYDDNYDYWGQGTQVTVSS	low polyreactivity
QVQLVESGGGLVQAGGSLRLSCAASGFTFAHNAMGWYRQAPGKERELVAAISSRGGRTFYADSVKGRFTISRDNAKNTVYLQMNSLKPEDTAVYYCNRVRSFQYDYWGQGTQVTVSS	high polyreactivity
QVQLVESGGGLVQAGGSLRLSCAASGFTFLRYAMGWYRQAPGKESELVAAISTSGGSTSYADSVKGRFTISRDNAKNTVYLQMNSLKPEDTAVYYCNAVLYKVSISEYDYWGQGTQVTVSS	high polyreactivity

Sequence	polyreactivity (PSR sort gate)
QVQLVESGGGLVEAGGSLRLSCAASGRTFSPNTMGWYRQAPGKEREFVAAITASGDSTYYADSVKGRFTISRDNAKNTVYLQMNSLKPEDTAVYYCATDSNWYWGFNYWGQGTQVTVSS	low polyreactivity
QVQLGESGGGLVQAGGSLRLSCAASGRNFSTYTMGWYRQATWKERELVASISWSGVRTRYADSVKGRFTISRDNAKNTVYLQMNSLKPEDTAVYYCAAVVPYYYRSPSNHMGYWGQGTQVTVSS	high polyreactivity
QVQLVESGGGLVQAGGSLRLSCAASGSIFRVYAMGWYRQAPGKERELVAGISSRGGTSTYYADSVKGRFTISRDNAKNTVYLQMNSLKPEDTAVYYCAVQVRYPGYDYWGQGTQVTVSS	low polyreactivity
QVQLVESGGGLVQAGGSLRLSCAASGSTFKYYAMGWYRQAPGKERELVASITRTGSSTYYADSVKGRFTISRDNAKNTVYLQMNSLKPEDTAVYFCNTGPHSVWWHYGYDYWGQGTQVTVSS	high polyreactivity
QFQLVDSGGSLVQAGSSLPLSCPASGRTFPYNVMGWYRQAPGKERELFASIDGSGGSTYYADSVKGRFTISRDYAKNTVYLQMNSLNPVDTAVYYCAAVYYQSGNYWYGYLGQSPYDYWGLGTQVTVSS	low polyreactivity
QVQLVESGGGLVQAGGSLRLSCAASGLTFYSYAMGWYRQAPGKERELVATIRWSGGSTYYADSVKGRFTISRDNAKNTVYLQMNSLKPEDTAVYYCATSSTHSRGDEYWGQGTQVTVSS	low polyreactivity
QVQLVESGGGLVQAGGSLRLSCAASGFIFGYYTMGWYRQAPGKERELVAAISSRGGSTYYAYSVKGRFTISRDNAKNTVYLQINSLKPEDTAVYYCAKRSTYTGSWWERGYCGQGTQVTVSS	high polyreactivity
QVQLVESGGGLVQAGGSLRLSCAASGRIYSFYAMGWYRQAPGKERELVAAITYTDGSTYADSVKGRFTISRDNAKNTVYLQLNSLKPEDTSVYYFATRYRWTPYDFWGQGTQVTVSS	low polyreactivity
QVQLVESGGGLVQAGGSLRLSCAASGSIFWTNAMGWYRQAPGKERELVAAIRVSTGSTYYADSVKGRFTISRDIAKNNVYLQMNSLKPEDTAVYYCNADLYIYEWYPALHSNDYWGQGTQVTVSS	low polyreactivity
QVQLVESGGGLVQAGGSLRLSCAASGFIFSSYAMGWYRQAPGKEREFVAAIDWNSTSTYYADSVKGRFTISRDNAKNTVYLQMNSLKPEDTAVYYCAADWVGYFVYPYDYWGQGTQVTVSS	high polyreactivity
HLQLVESGGGLVQAGGSLRLSCAPSGSTFKRNTKGWYRQAPGKEREMVASINRGGSTYYADSVKGRFTISSDNAKNTVYLQMNSLKPEDTAVYYCAKRVLNCYTGTQAPNKFGYWGQGTQVTVSS	low polyreactivity
QVQRVESGGGLVQAGGSLRLSCAASGSTFLVNGMGWNRPAPGKERELVASITRDSSTYADSVKGRFTISRDNAKNTVYLQMNSLKPEDTAVYYCAATSRRRWSQQQGYGYYYWGQGTQVTVSS	high polyreactivity
QVQLVESGGGLVQAGGSLRLSCAASGITFVYYDMGWYRQAPGKERELVAAISSDGSTYYADSVKGRFTISRDNAKNTVYLQMNSLKPEDSAVYYCAADYFNYRGYTYLGDYWGQCTQVTVSS	low polyreactivity
QVQLVESGGGLVQAGGSLRLSCAASGSIFAYAMGWYRKAPGKEREFVAAISGGSTYYADSVKGRFTISRDNAKNTVYLQMNSLKPEDTAVYYCAADLDDERYYWGQGTQVTVSS	low polyreactivity
QVQLVESGGGLVQAGGSLRLSCAASGSIFGGYAMGWYRQAPGKERELVADISGSGGGTYYADSVKGRFTISRDNAKNTVYLQMNSLKPEDTAVYYCARRPRTYKHWFGYWGQGTQVTVSS	low polyreactivity
